Experimental data: the DeepSol protein solubility set

assay: soluble on expression in E. coli; label from the status in PepcDB or PDB records

| Sequence | soluble on expression in E. coli |
| --- | --- |
| MAHHHHHHMGELFSIKNLFICSNERSVEELRTAMEGLLKKERAEGAGGGEKEAKEETHPGGKKYEMIKDYLDANKNNVLHFAIYGNNMNNVKFIIENTNLINSINSEEQNGLIISVLNRNTQISKYLIEQNIDYNQKDKHKANALLYSLITQNYEIFNLLMEKKNIDINVNSFEKGNLLSVSIFERNIHVLKKLFNKFICPFVEGSVYPHPLLYITYSSDNELLFLYLTYCMYYCTKDDALYKINTANFDHSREEIYVDLDHRQVICSIWDNSTYDLSAFKDVLNMTDEDGTPLCSTCVNNGNSLGKNIFDYFSAPS | not soluble |
| MAHHHHHHMGFLDGKRILLTGLLSNRSIAYGIAKACKREGAELAFTYVGDRFKDRITEFAAEFGSELVFPCDVADDAQIDALFASLKTHWDSLDGLVHSIGFAPREAIAGDFLDGLTRENFRIAHDISAYSFPALAKAALPMLSDDASLLTLSYLGAERAIPNYNTMGLAKAALEASVRYLAVSLGAKGVRVNAISAGPIKTLAASGIKSFGKILDFVESNSPLKRNVTIEQVGNAGAFLLSDLASGVTAEVMHVDSGFNAVVGGMAGLEE | soluble |
| MAHHHHHHMGGVRIARCNPKLLDFVTWAVMKGCRLFQRVHVTPLGLVATERIPEFDFVAVVPVEATQSLLSIADDPSFALKVSAERHGEPVPFWEDLTRGSFAFLGFLTKALLTGHPRGVQTYLDVLPFDPAMPIGKMADAAQTTKGYKEWAAPLVAQCKVEESDFNAAFRHAYCLFRRHAIPLWSTSDASGSGHPYFQQSPYARRGQGELMGMVPVMDLALHSPQPNAMIGYPDEEMLQWLSLHKKAAVQQEKGYFVMQAFRDIEEGEVISVNKNAYFNFDDDAFEAWFGYPNVSQVPAEGSGELSSGCKPNGGEGAAVNCAL | soluble |
| MAHHHHHHMGTLEAQTQGPGSMRLTVVGANGRMGRELITAIQRRKDVELCAVLVRKGSSFVDKDASILIGSDFLGVRITDDPESAFSNTEGILDFSQPQASVLYANYAAQKSLIHIIGTTGFSKTEEAQIADFAKYTTIVKSGNMSLGVNLLANLVKRAAKALDDDFDIEIYEMHHANKVDSPSGTALLLGQAAAEGRNIMLKNVSVNGRSGHTGKREKGTIGFACSRGGTVIGDHSITFAGENERIVLSHIAQERSIFANGALKAALWAKNHENGLYSMLDVLGLNE | soluble |
| MAHHHHHHMHAEAAAEAAMPVIATLSSRVVRIMGLNPGYMTLQGSNTYLVGTGQERLLIDSGEGVEGYGHLLQKAVAEESTRLGGPVHISKLLLTHWHGDHIGGVETVRRLFPQVQLLKQPSQYAHTEVDALCQVPPEVVKVEGATLQLVHTPGHTDDHLCAFLQEERALFTSDTVLGTGTSVFSSFRDYMASLHVLERMKPERLYPAHGPVVEDGTARIEEIIRHRHTREKQILQVLCERTHGVSALDSEKGLTVRELVDTIYTTIPAALKTAAGTNVFHHVKKLLNEGRVVVRYAPADLVHFLKDATDYTVFGEGADADVKVIERILTEFRVAAAGVSSGAP | soluble |
| MAHHHHHHMHDIGGAELVVAVHQPAAASHGQPFCHEHGKAKTESAGHNLQHAAAIHRNVPKHTRALVVFVARRTPQAVLYGEHGAAADTEVRRKSVHHVRLRPDNAVVHVEHTGQVRTEAALHEDSRARFPATQQRRARHDKPRRQKPDAVQNKRGAVPESRTARGRQHVLRPANRRAQR | soluble |
| MAHHHHHHMHLLSFLSFIIWFIHCTAKRHEYSIKKYFLNSHNFCKIKPDPFRKDTLKKRLYSSDGIKDEIIIGTRDSPLALKQSEKVRKKIMSYFKKMNKNINVTFKYIKTTGDNILDSKSVGLYGGKGIFTKELDEQLINGNVDLCVHSLKDVPILLPNNIELSCFLKRDTINDAFLSIKYKSINDMNTVKSVSKTEDIHHINKKDSDHNNDTLCTIGTSSLRRRSQIKNRYKNIYVNNIRGNINTRIEKLYNGEVDALIIAMCGIERLIKKANLKHLLKNKEQKNICQPFLLKCNNKKCIDLCHVNIQKLNKNLIYPALGQGIIAVTSHKKNYFISSLLKNINNKKSEMMAQIERSFLYHIDGNCMMPIGGYTNMRNEDIYLHVIINDIHGYNKYQVTQKDTLYNYKEIGPNAAIKMKEIIGTEQFNKIKAEAELHLLNNK | not soluble |
| MAHHHHHHMHLQIVCLTDEVREMYKHHKTHHEGDSGLDLFIIKDEILKPKSTTFVKLGIKAIALQYKSSYYHKSEANANANANANGKDAPVGMGGVNAKESCAPHQKNPEIVNTSYLLFPRSSISKTPLRLANSIGLIDAGYRGELIAALDNTSEEEYLIKKNDKLVQLVSFTGEPLSFELVDELDETSRGEGGFGSTSNK | soluble |
| MAHHHHHHMHNFAKIFRSNFIDINAANKFEIFLKTILRIYKTPARTHLLAHAADISAIYAVRQIYNYMKNDEEGRTVLKEKPLLIRQDIQFNELKKLPKNTLGYKYMKFLETYKLHAHDREVSHFFTDLNYSYILTRYRQIHDIGHVVYNLNISIESEAALKLIELVQTKLPITLLAILVAPFMTPIYRFQYIFKDSLPSNFLSPNFDFTYTDAYNYVDELSIKQYEYNLTDYFHVEKRNDRNFYTKMYQHYFDNINNSSAVRGSIIYGFENKSSNDIIYDQPNREYIFLKNLKKKYLLFQYKPRKNLLRELYPWAYMAGVSTTKPLHSIHIEKWLDKDIDLFRRTYNISPLPDHLNLMAGIN | not soluble |
| MAHHHHHHMIEHLNLWLPWKHRKPMWPYPQKNAMPSVFPLEFTTLGEGVVTFSCLCLAAVLAVQEVLTPSHGFPTVLVAFPHKRGGVSSALLYSKVVEAFIQSLRSESALVEAVTVRHMARAALQALNTIINACFSEQYPLYTMAQLLLSEGKAEAKDATHDGGMLGAVDLVLSIDPLSCGGDILHSETQLVMPTPFAIRSVGRCTPGAARQQTNVKLPSALEVTDAALLQMPGAGESSTGRRLSACILERSQVLLTLLK | not soluble |
| MAHHHHHHMIICNNNVNHFWKNIKKNIRLDGRTFEDSRNVCINFLKDYGHVEISIGFTKVICKITSEIVKPHDRKLKEGILKINLDIDNFIEDNENSDNMSDECLEIKNIIDRVLKTSNIINFESLCIIPGKKVWCICINIMVIENDGNLTDACYLSAYCGLVHFKNHQVRVIKNGDIIIDKEEINYSPLSILNSPIVTTFAYYEEHDVCLIDPCLHEEEFMSSKISIALNKNGNLISLLKPGGIPLACSHIMESIEIAKKRILTILKILEDTLEEDKNIRSYLTKRNLHVKYSSAPVTIRYDNSFKLKPDISLERYTKNTLIFEDTIKKIEQYIQYNQVQECLNNMNVKLEENDQEEIETCTLKGEGNLNNPNFIDPMRNTNLLNPTDITIIKRQEFVDNHYDANNNKYNTQANKTFKKELIDFSNLLTQNHKKSNNLSNNQKDISEQHDNSQESSDDASTIRSDESSDIDFSVAINQNIKKKK | not soluble |
| MAHHHHHHMILRTAGASNVYSVFAYPGTGKARDMLTTETADTSGSESGNLTNVRARHCAHFQFNKMCNLGESCNFIHSLVPYVQRLSMSSQGPLYNSIVTQRPLLMPSTSMAHFSRFPNGNNNNGVVSSYSMEFMQPSMLHVSPQTQQQQQQQKQQQKQQQKQLHQQPQHAMPPPPPTVSHLIPSPQPSEHLMYQSNMSMMSLPMYMSSPISSTWDGVRYGANYQ | not soluble |
| MAHHHHHHMIYKAYGSPENNSGNTHMYSMYAPPNAYVQGQGGSRTMYGYAGTGGHGSGHPFGYHANPSMGVTYEYNGGINVHHNGSAYRVGGGTNGRDRGGDVVSLRNLHGYDQQATSDYEVHDNQLKAPVVVTPATVVSTLGSARLFSKPPKPIVYGSRCVVRICDAFQEGRCAAGDRCHDIHVRPEYLAETRMEMSSWLFDRECEFRQTMEMDSEKTFSIFVADLKEVVEVPINSLVFTKGLYVDPATRAKRARGAGNHAHVHAMMQVPTSCGLYSTDPLQCKWERWCNQVHIDHRWMQVKKAEFDQWFIELQNRYFSLAPDDTFTVHDPQLKSSISLPKFSIAGFSRGLFQGSMKKLASVCLLFQRGKCTAGSCCNQIHVFPQYLSLAREFAAMEQSPDALPEEKQRLRREMELLRGPLMKQEKQETAAMESASLPNVVSSANEGTHSDAMDIKAAAEEDLASCGALFEHVQVDEDVEPVSHLVSANTSLTRRMNASAPDISLSVARHMNSDGSYSFNPYGSVTSLPDGSTSFNRFPGTRGSGQPMDGNGSVQYTPGSVQLLSTDTKGMRRLVALVSPESGNGAVELHRNGDDMGIGGNAGDGGTATVAHDRAPPFAAGHRSNGGYRAVAHPLGDEGGRYDSGTQGEQSCSLHPLDFDASWHFSPTPLLGFDASTTSTHRNGSIRDEDPAMHAHLRLTASNSSYIYPGSSTTSQQNLLSTPMHRGVTSNATTAARVRLAASAASSRTHAHRSATSLPDSSTTNPAMGGSVSSMPTARPTFVGEQLTGTR | not soluble |
| MAHHHHHHMKDEQISCYYLTEKGKNKCFKNIKLITFDLDHTIWNIDALLNYADNECYKYMEQNYKRLYDYLSKEYALSMTNLVKELLERNIDMNKDGVQILTRIRTDALKYLAKQTNYDEIKFASEIQKLWKEKKKDVHLFISPGTLEYLRELKNRGYILGAITNGDSDVNEIKFLNEIFSFVVRSMDYNFAKPNVEIFNIAENLLKEKNINFHVDEWLHVGDDVYTDIMGAKNKNINCAWITMFREGREISHKEWYSYLKLKYEQNDNKQTLSQYDPYADGLFAKFRKKDVVLPFDYIDIEIRHCRDLDSILA | not soluble |
| MAHHHHHHMKEKYTITPLARRTPNGVLTQVLTEARREAAERLRGMQEMKFTICTDIEEVLFKGRVHVNEMRLNDFLTREPDGRGVVDTNRDVLLEEFFKDPTKYIRDKGALNEIQAFGHYLSMKRAVKGEVIFDEDIRELCDRVSTTYRGGHWLLRR | not soluble |
| MAHHHHHHMKEYLAQKEYRAKEYRAKDYPAKDYSGKKEYTSKKAYTPKKEYTAIRGCAVENAYFDEKAYTGCKANQGEEAHKNDASVVEGGKSKKNEERVLAGMIKILEEMKESDDASNAVDPGFN | not soluble |
| MAHHHHHHMKNGKPMGGRETQKQKQKQKQVTLLTWINRANQPRQLTRKTKKAHEKQEERRIWLGAAKRLPQKMPQSMRCNYDIRTHINTHIHKHSHSHSHQLQTYTRTHHLSQKEMKRNEPQDIIRFHSNTQEPAGSTSSHVVTRLVITLLLLCTTQICPTSTEAVERGKQGALLFR | soluble |
| MAHHHHHHMKPKIPFIIEIFSSFGDNYSTNYIEKEMNLDIMNVVKNYDLDTLVEENKEANGTPHVTVDDAVDQIMDRFYDCSVFHKIILLDVSILFERVE | not soluble |
| MAHHHHHHMKQLLSPKTARHSRLFRLANRLAGQKGAPESDGERLSWVNSHVKRTQDMELSREEEALRERIMPLEVGDNAVVSNSQATHGNLFHFREYPMYPGEYVPAGHNTLSSLRDELRSDLTAQSLKEAWMRVSGGMYFKSIDDYYASVDGLDQEQLGEIVSALLPDLRKYEAQALVTKVLESLSKPADSPSRQLSRTITADAVGLDNAPGHYTNFLEWMGRMTETKAFKTEHALFEFSRRKFNREDVRVMFENYNLMSKATLEADSTDSYSHFYTVLHDFSRKVAGEDTRHQIGVRIDPAEVDPETGIAVGHGRADGQKYMFTALIRENRDHNGSVTLLGKPLSVAFDDKSWLMEMVLMPFDEAKLDFRDFDVNLISEGKAMPSFANEIAAFACRMAVANAITKLLPLARIPLKKAGLLSVDRRREPGQFPGFVDGKKNKRKFAKR | not soluble |
| MAHHHHHHMKTFRYLTITGDTITLRRGARHVMHLLLTLERAPYDTRLNLEFVSLAHMRQLNYKYKGLDRPTDVLTFAPAGEADSFVNDLLFGDFLERGDGDKGTGATLTASPTCAAAVGAGPNALTQSIIRGELVDLGNIFVSLDYMRLRCRRYPSTTLPLAPYLHAALVHATLHALGYDHTSRALLQQMARREQQLGRQLAMIARQHPRCLPPLNIWDSM | not soluble |
